Measured values from publication PMC9508834, “Mechanism of protein-primed template-independent DNA synthesis by Abi polymerases” (Nucleic Acids Research, 2022).
Positions count from the first letter of the chain named. Names may count otherwise. “And” between values parts separate entries of the source, which are not always exact repeats. Identical values can stand only once.

Columns and labels:
[1] = biological target: Abi-P2 of E. coli prophage EC30 (residues 1–541) (E. coli prophage EC30 (Enterobacteria phage P2-EC30)); test: SEC-MALS; Superdex 200 Increase 10/300 GL, 100 μl samples, 25 mM Tris pH 7.0, 400 mM NaCl, 2% glycerol, 1 mM DTT
[2] = biological target: Abi-P2 of E. coli prophage EC30 (residues 1–541) (E. coli prophage EC30 (Enterobacteria phage P2-EC30)); test: cryo-EM structure; Abi-P2 1 mg/ml in 20 mM Tris pH 7.0, 500 mM NaCl, 1 mM DTT; tilted dataset, C3 symmetry, 3.9 Å low-quality reconstruction, not deposited
[3] = biological target: Abi-P2 of E. coli prophage EC30 (residues 1–541) (E. coli prophage EC30 (Enterobacteria phage P2-EC30)); test: crystal structure; Abi-P2 (1–541) 6 mg/ml, sitting drop at 18°C and 4°C; space group P2(1); 3.1 Å
[4] = biological target: the molecule itself; test: cryo-EM structure; Ll-AbiK 1.0 mg/ml on Quantifoil R1.2/1.3 grid, single-particle reconstruction with D3 symmetry, 2.3 Å
[5] = biological target: the molecule itself; test: cryo-EM structure; Ll-AbiK Y44F 1.74 mg/ml on C-flat-2/1 grid, 2D classification; only hexamer classes used for the reconstruction (D3 symmetry, 2.7 Å)

Abi-P2 of E. coli prophage EC30 (residues 1–541) (enzyme)
stoichiometry N [1]: 3
stoichiometry N [2]: 3
stoichiometry N [3]: 3

B1: Lactococcus lactis AbiK, wild type (Ll-AbiK–DNA adduct) (enzyme)
chain: MKKEFTELYDFIFDPIFLVRYGYYDRSIKNKKMNTAKVELDNEYGKSDSFYFKVFNMESFADYLRSHDLKTHFNGKKPLSTDPVYFNIPKNIEARRQYKMPNLYSYMALNYYICDNKKEFIEVFIDNKFSTSKFFNQLNFDYPKTQEITQTLLYGGIKKLHLDLSNFYHTLYTHSIPWMIDGKSASKQNRKKGFSNTLDTLITACQYDETHGIPTGNLLSRIITELYMCHFDKQMEYKKFVYSRYVDDFIFPFTFENEKQEFLNEFNLICRENNLIINDNKTKVDNFPFVDKSSKSDIFSFFENITSTNSNDKWIKEISNFIDYCVNEEHLGNKGAIKCIFPVITNTLKQKKVDTKNIDNIFSKRNMVTNFNVFEKILDLSLKDSRLTNKFLTFFENINEFGFSSLSASNIVKKYFSNNSKGLKEKIDHYRKNNFNQELYQILLYMVVFEIDDLLNQEELLNLIDLNIDDYSLILGTILYLKNSSYKLEKLLKKIDQLFINTHANYDVKTSRMAEKLWLFRYFFYFLNCKNIFSQKEINSYCQSQNYNSGQNGYQTELNWNYIKGQGKDLRANNFFNELIVKEVWLISCGENEDFKYLN
modifications: DNA (9–17 nt by mass spectrometry) covalently attached by its 5′ end to the hydroxyl group of Tyr44
notes: AbiK of Lactococcus lactis, encoded on plasmid pSRQ800; synthetic gene; theoretical MW of the monomer 71.5 kDa; it says that the whole length of the polypeptide chain is visible in the model except residues 189–190; The short DNA was synthesised in the bacterial cell and co-purified; source: E. coli BL21 Star (DE3), purified (HisTrap, SUMO protease, HisTrap flow-through, Superdex 200); not shown: …
stoichiometry N [4]: 6

B2: Ll-AbiK Y44F (enzyme, Lactococcus lactis)
chain: B1 chain with Y44F
notes: AbiK of Lactococcus lactis with the protein-priming tyrosine 44 replaced by phenylalanine; Unable to carry out protein-primed DNA synthesis, so it carries no DNA; Purification of the variants is described only in general terms with the wild type; also called Y44F variant; source: E. coli BL21 Star (DE3), purified; not shown: His6-SUMO, N-terminal, cleaved
stoichiometry N [5]: 3 and 6
